Here are results for two molecules from patent US20100144634A1 (published 2010).

The target in assay [1] is T1, von Willebrand factor (VWF), purified plasma-derived, multimeric, native (UniProt P04275 764-2813).
T1 construct: mature; human is implied; also called pvWF; plasma VWF
Briefly: pull-down on VWF-Affi-gel 10, western blot with anti-V5 (FIG. 5B); the microtiter result is given with a literature citation. On the procedure: FIG. 5. Binding of ADAMTS13 (or variants) to VWF immobilized on solid surfaces. A. Binding of ADAMTS13 and variants to VWF immobilized on a microtiter plate: FL-A13, delCUB and MDTCS (0-200 nM) were incubated without (control) or with VWF (10 μg/ml, 100 μl/well) immobilized on a microtiter plate for 1 h. The bound ADAMTS13 and variants were determined by mouse anti-V5 IgG, followed by rabbit anti-mouse IgG, peroxidase-conjugated and OPD-H₂O₂. The KD (S) was determined by fitting the data into non-linear regression. B. Binding of ADAMTS13 and variants to immobilized VWF on Affi-gel 10: FL-A13, delCUB, MDTCS and metalloprotease domain (M) (˜50 nM) were incubated at 37° C. for 1 h without (−) or with (+) VWF covalently immobilized onto the Affi-gel 10. After extensive washing with TBS and 20 mM Tris-HCl, pH 7.5, […], the bound ADAMTS13 and variants were eluted from the beads with SDS-gel sample buffer and determined by Western blot with anti-V5. The amount of input FL-A13, delCUB, and MDTCS is the same with the signal of only FL-A13 shown in lane 1 (IN).
The binding of ADAMTS13 to immobilized Affi-gel 10 was also described previously²². […] The bound FL-A13 and variants were eluted from the beads by boiling them at 100° C. for 10 min and detected by Western blotting with anti-V5 IgG as described previously^{22;24;29}.
(In western blotting, separated proteins are transferred to a membrane and probed.)

In assay [2] the target is T2, murine vWF (murine, UniProt Q8CIZ8 764-2813, limits assumed).
T2 construct: also called immobilized murine vWF
Briefly: microtiter binding assay, immobilised murine vWF.

T2 sequence (Q8CIZ8 764-2813 limits assumed): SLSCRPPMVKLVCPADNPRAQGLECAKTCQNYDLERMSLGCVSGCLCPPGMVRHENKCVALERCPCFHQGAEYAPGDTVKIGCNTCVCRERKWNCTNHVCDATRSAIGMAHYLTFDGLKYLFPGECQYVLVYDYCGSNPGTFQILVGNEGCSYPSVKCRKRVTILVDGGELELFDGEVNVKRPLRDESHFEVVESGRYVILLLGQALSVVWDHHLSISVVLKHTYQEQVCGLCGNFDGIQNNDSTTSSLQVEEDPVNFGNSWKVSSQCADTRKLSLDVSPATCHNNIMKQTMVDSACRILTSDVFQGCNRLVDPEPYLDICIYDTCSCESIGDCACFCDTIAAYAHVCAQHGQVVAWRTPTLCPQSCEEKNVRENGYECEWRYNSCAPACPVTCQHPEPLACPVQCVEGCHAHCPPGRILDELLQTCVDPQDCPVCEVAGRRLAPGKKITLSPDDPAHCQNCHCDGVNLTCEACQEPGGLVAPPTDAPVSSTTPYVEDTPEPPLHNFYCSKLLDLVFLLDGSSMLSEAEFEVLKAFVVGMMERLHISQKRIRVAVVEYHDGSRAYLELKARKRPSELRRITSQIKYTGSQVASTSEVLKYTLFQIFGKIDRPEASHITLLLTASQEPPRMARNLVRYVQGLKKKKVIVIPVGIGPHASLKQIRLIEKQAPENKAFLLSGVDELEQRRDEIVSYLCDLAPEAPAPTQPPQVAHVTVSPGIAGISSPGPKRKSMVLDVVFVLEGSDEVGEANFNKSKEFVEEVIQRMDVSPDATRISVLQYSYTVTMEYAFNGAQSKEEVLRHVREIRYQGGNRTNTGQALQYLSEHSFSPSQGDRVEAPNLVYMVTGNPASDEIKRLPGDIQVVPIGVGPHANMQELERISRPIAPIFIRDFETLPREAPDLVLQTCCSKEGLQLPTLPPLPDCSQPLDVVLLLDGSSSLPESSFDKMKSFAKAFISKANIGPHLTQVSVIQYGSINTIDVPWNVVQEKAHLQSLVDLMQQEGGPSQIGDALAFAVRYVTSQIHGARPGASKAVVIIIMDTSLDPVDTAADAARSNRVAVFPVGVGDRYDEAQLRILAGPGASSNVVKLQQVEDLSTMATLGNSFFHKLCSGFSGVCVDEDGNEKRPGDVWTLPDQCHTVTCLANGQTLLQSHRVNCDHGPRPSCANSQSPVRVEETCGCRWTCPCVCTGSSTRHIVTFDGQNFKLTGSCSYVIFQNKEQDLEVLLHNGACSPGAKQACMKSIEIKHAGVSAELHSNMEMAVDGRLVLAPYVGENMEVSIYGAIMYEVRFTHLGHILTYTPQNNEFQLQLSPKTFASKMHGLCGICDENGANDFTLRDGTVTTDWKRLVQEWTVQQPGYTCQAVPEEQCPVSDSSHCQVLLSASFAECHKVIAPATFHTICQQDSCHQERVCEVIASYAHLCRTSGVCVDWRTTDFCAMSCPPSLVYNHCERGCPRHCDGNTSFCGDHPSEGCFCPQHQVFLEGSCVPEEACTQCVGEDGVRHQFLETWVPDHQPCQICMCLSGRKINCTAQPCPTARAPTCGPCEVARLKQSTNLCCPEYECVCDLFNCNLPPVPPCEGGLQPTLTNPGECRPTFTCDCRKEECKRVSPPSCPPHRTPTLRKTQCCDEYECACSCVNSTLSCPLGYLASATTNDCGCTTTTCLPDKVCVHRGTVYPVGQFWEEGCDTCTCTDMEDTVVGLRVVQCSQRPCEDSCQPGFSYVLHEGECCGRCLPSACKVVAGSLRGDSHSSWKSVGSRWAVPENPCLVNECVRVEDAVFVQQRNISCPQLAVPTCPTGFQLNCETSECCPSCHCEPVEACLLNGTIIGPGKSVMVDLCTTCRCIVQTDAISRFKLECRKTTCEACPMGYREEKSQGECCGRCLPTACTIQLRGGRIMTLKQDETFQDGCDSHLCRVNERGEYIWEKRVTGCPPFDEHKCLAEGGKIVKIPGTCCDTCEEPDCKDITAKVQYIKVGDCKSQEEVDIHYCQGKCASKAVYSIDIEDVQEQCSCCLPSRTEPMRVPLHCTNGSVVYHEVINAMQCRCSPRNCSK

B1: ADAMTS13 metalloprotease domain alone (enzyme, UniProt Q76LX8 75-289, looked up)
chain: AAGGILHLELLVAVGPDVFQAHQEDTERYVLTNLNIGAELLRDPSLGAQFRVHLVKMVILTEPEGAPNITANLTSSLLSVCGWSQTINPEDDTDPGHADLVLYITRFDLELPDGNRQVRGVTQLGGACSPTWSCLITEDTGFDLGVTIAHEIGHSFGLEHDGAPGSGCGPSGHVMASDGAAPRAGLAWSPCSRRQLLSLLSAGRARCVWDPPRPQ
notes: domain: metalloprotease domain
As to B1, the binding result in assay [1] is listed as “no binding”.

B2: canine FVIII-SQ (other, UniProt O18806 20-2343, looked up)
chain: ATRKYYLGAVELSWDYMQSDLLSALHADTSFSSRVPGSLPLTTSVTYRKTVFVEFTDDLFNIAKPRPPWMGLLGPTIQAEVYDTVVIVLKNMASHPVSLHAVGVSYWKASEGAEYEDQTSQKEKEDDNVIPGESHTYVWQVLKENGPMASDPPCLTYSYFSHVDLVKDLNSGLIGALLVCKEGSLAKERTQTLQEFVLLFAVFDEGKSWHSETNASLTQAEAQHELHTINGYVNRSLPGLTVCHKRSVYWHVIGMGTTPEVHSIFLEGHTFLVRNHRQASLEISPITFLTAQTFLMDLGQFLLFCHIPSHQHDGMEAYVKVDSCPEEPQLRMKNNEDKDYDDGLYDSDMDVVSFDDDSSSPFIQIRSVAKKHPKTWVHYIAAEEEDWDYAPSGPTPNDRSHKNLYLNNGPQRIGKKYKKVRFVAYTDETFKTREAIQYESGILGPLLYGEVGDTLLIIFKNQASRPYNIYPHGINYVTPLHTGRLPKGVKHLKDMPILPGEIFKYKWTVTVEDGPTKSDPRCLTRYYSSFINLERDLASGLIGPLLICYKESVDQRGNQMMSDKRNVILFSVFDENRSWYLTENMQRFLPNADVVQPHDPEFQLSNIMHSINGYVFDNLQLSVCLHEVAYWYILSVGAQTDFLSVFFSGYTFKHKMVYEDTLTLFPFSGETVFMSMENPGLWVLGCHNSDFRNRGMTALLKVSSCNRNIDDYYEDTYEDIPTPLLNENNVIKPRSFSQNPPVSKHHQREITVTTLQPEEDKFEYDDTFSIEMKREDFDIYGDYENQGLRSFQKKTRHYFIAAVERLWDYGMSRSPHILRNRAQSGDVQQFKKVVFQEFTDGSFTQPLYRGELNEHLGLLGPYIRAEVEDNIVVTFKNQASRPYSFYSSLISYDEDEGQGAEPRRKFVNPNETKIYFWKVQHHMAPTKDEFDCKAWAYFSDVDLEKDVHSGLIGPLLICRSNTLNPAHGRQVTVQEFALVFTIFDETKSWYFTENLERNCRAPCNVQKEDPTLKENFRFHAINGYVKDTLPGLVMAQDQKVRWYLLSMGSNENIHSIHFSGHVFTVRKKEEYKMAVYNLYPGVFETVEMLPSQVGIWRIECLIGEHLQAGMSTLFLVYSKKCQTPLGMASGHIRDFQITASGQYGQWAPKLARLHYSGSINAWSTKDPFSWIKVDLLAPMIIHGIMTQGARQKFSSLYVSQFIIMYSLDGNKWHSYRGNSTGTLMVFFGNVDSSGIKHNIFNPPIIAQYIRLHPTHYSIRSTLRMELLGCDFNSCSMPLGMESKAISDAQITASSYLSSMLATWSPSQARLHLQGRTNAWRPQANNPKEWLQVDFRKTMKVTGITTQGVKSLLISMYVKEFLISSSQDGHNWTLFLQNGKVKVFQGNRDSSTPVRNRLEPPLVARYVRLHPQSWAHHIALRLEVLGCDTQQPA
notes: also called canine B-domain deleted factor VIII
Usually Kd stands for the concentration at which binding is half-saturated. A low value points to a tighter complex. B2 had a Kd in assay [2] of roughly 1.7 nM.
